In assay [1] the test system is chemokine receptor CXCR4. Description: Immunoblotting of CXCR4 in lymphatic endothelial cells (incl. HIF-1α RNA interference). The format is cell-based. The following applies: mouse lymphatic endothelial cells, 100 ng/mL VEGF-C, 6, 12 and 24 hours. Here is the method: Mouse primary lymphatic endothelial cells at passage 2 or 3 in good condition were selected, and starved overnight by replacing the culture medium with a fresh medium free of serum and growth factors. Then the medium was replaced with a medium containing 100 ng/mL of VEGF-C. The cells were incubated for 6, 12 and 24 hours, respectively, and then trypsinized and collected by centrifugation for detecting the expression level of chemokine receptor CXCR4 in the cells by immunoblotting.
The samples were subjected to SDS-PAGE (the concentration of separation gel was 15%). Protein bands were transferred to polyvinylidene difluoride (PVDF) membrane (purchased from Millipore) at 100 mA for 3 hours using an electroblotting device in ice bath. TBST buffer (20 mM Tris, pH7.4, 150 mM NaCl, 0.1% Tween-20) was formulated for preparing blocking solution, primary antibody solution and secondary antibody solution. The PVDF membrane was further incubated in blocking solution containing 5% skim milk for 1 hour at room temperature with gentle shaking. The membrane was then washed with TBST for 5 times, 5 minutes each. […]
The siRNA for interfering with the chemical synthesis of HIF-1α was purchased from Santa Cruz Biotechnology, and the negative control siRNA was purchased from GenePharma, Shanghai. […] HIF-1α knock-down efficiency was detected by immunoblotting. […]

The subject of assay [2] is mouse lymphatic endothelial cells. Description: Cell chemotaxis assay (Transwell). The following applies: agent in outer chamber (CXCL12 1, 20, 100 ng/mL; VEGF-C 100 ng/mL), 6 hours. The format is cell-based. Here is the method: The migration ability of mouse lymphatic endothelial cells was assessed using 8-μm-pore Transwell bucket (filter membrane) (purchased from Costar). The transwell bucket was placed into a 24-well plate. Mouse primary lymphatic endothelial cells (mLECs) at passage 2 or 3 in good conditions were selected, and divided into five groups, four parallel samples for each group and approximately 2×10^4 cells for each parallel sample. The cells were digested with trypsin, resuspended in 200 μL of fresh serum-free endothelial cell culture medium (ECM, purchased from Sciencell), and then seeded into the inner chambers of the Transwell bucket. To each outer chamber was added 800 μL of serum-free endothelial cell culture medium mixed with 1 ng/mL, 20 ng/mL, 100 ng/mL of chemokine CXCL12 (purchased from R&D Systems), 100 ng/mL of VEGF-C (purchased from R&D Systems) and PBS control, respectively. The culture plate was placed into an incubator and incubated under 5% CO2 at 37° C. for 6 hours.
After taking out the culture plate, the Transwell bucket was fixed in 4% paraformaldehyde solution for 15 minutes. The Transwell bucket was rinsed twice in PBS, stained with 0.1% crystal violet solution for 30 minutes, and then washed with PBS to remove the non-specifically bound crystal violet. The cells inside Transwell membrane were wiped off gently with medical cotton swabs. Note that the cells on the edge of the membrane should also be wiped off to avoid affecting cell counting. The Transwell bucket was placed under a microscope (Olympus IX71 microscope), and the cells migrated from the outer membrane were observed by microscopy. 8 fields per group were photographed randomly to count the cells.
The migration ability of mouse lymphatic endothelial cells was assessed using 8-μm-pore Transwell bucket (purchased from Costar). The bucket was placed into a 24-well plate. Mouse primary lymphatic endothelial cells (mLECs) at passage 2 or 3 in good conditions were selected, and divided into six groups, four parallel samples for each group, and approximately 2×10^4 cells for each parallel sample. The cells were digested with trypsin and resuspended in 200 μL, of fresh serum-free endothelial cell culture medium (ECM, purchased from Sciencell). The cells were pretreated for 30 minutes with dimethyl sulfoxide (DMSO) as a control, protein kinase B (Akt) antagonist LY294002 (10 μM, purchased from Sigma-Aldrich) and extracellular signal-regulated kinase (Erk) antagonist U0126 (10 μM, purchased from Sigma-Aldrich), respectively, and then seeded into the inner chambers of the Transwell bucket. […] The cells were stained and the number of the migrated cells was counted.
The migration ability of mouse lymphatic endothelial cells was detected by using 8-μm-pore Transwell bucket (purchased from Costar). […]

B1: VEGF-C: Vascular Endothelial Growth Factor C, the major pro-lymphangiogenesis factor; purchased from R&D Systems (protein, UniProt P49767 112-227, looked up)
Vascular endothelial growth …: AHYNTEILKSIDNEWRKTQCMPREVCIDVGKEFGVATNTFFKPPCVSVYRCGGCCNSEGLQCMNTSTSYLSKTLFEITVPLSQGPKPVTISFANHTSCRCMSKLDVYRQVHSIIRR
As for B1, the “expression level of CXCR4” value in assay [1] is “could up-regulate the expression of CXCR4 and HIF-1α”. In addition, the “migration of mouse lymphatic endothelial cells” value in assay [2] was “could promote the migration of mouse lymphatic endothelial cells”.

These data come from patent US20180094051A1, “METHOD FOR INHIBITING LYMPHANGIOGENESIS BY ADMINISTRATION OF AN INHIBITOR OF THE CXCL12 PATHWAY” (Tsinghua University, priority 2012, published 2018).
